Data set [1] relates to heterotopic cardiac allograft. Briefly: C57BL/6-to-BALB/c mouse heart transplant model (murine heterotopic cardiac allograft). It is filed as in vivo. As to conditions: for extension of allograft survival compared to untreated controls / mean survival time of graft: monotherapy; for mean survival time of graft: 100 ug per mouse per day for 8 days, untreated mean 8 days. Here is the method:
Animal model: C57BL/6-to-BALB/c Mouse Heart Transplant Model
Male adult C57BL/6 (H-2b) were used as donors and BALB/c (H-2d) mice were used as recipients (Jackson Laboratories, Bar Harbor, Mass.). Intra-abdominal heterotopic cardiac transplantation was performed as previously described (Corry et al. (1973) Transplantation 16(4):343-350 and Wang et al. (2007) J Immunol 179(7):4451-4463). In this study, transplant surgery involved transfer of fully MHC-mismatched hearts from C57BL/6 donors to BALB/c recipients, such that the autologous heart as well as the allogenic heart was present in the recipient.
Cardiac transplant recipients were treated as follows: Group I (five recipients) received no treatment. Group 2 (3 recipients) received hCD83ext-m3 monotherapy by i.v. at 100 μg/mouse/day, from −1 to +7 POD. […] Cardiac transplant survival was measured in the number of postoperative days (POD) that the allogenic heart continued to beat.
Cardiac transplant recipients were treated as follows: Group 4 (4 recipients) received hCD83ext-wt (SEQ ID NO:5) monotherapy by i.v. at 100 μg/mouse/day, from the day prior to transplantation until graft rejection.

Data set [2] is described as follows: Storage stability of purified protein, reduced and non-reduced SDS-PAGE. Format: physicochemical. The method, then: The purified wild type hCD83ext, when prepared as described in Example 1 and formulated either in the presence or absence of 50% glycerol, degraded when stored at 4° C., perhaps due to an intrinsic instability of this biomolecule. […] Generally, the dimer composition increased monotonically with the sample age, indicating the progressive conversion of monomer to dimer under this storage condition. Note that there were at least two different monomer forms (lane 6, FIG. 6) and three different dimer forms (lanes 3 and 7, FIG. 6) derived from various sample preps.

Data set [3] deals with TNFα production by LPS/IFN-γ stimulated peripheral blood mononuclear cells (PBMCs).
Description: The ability of the wild type and mutant hCD38ext to inhibit TNFα production by LPS/IFN-γ stimulated peripheral blood mononuclear cells (PBMCs) was evaluated in an in vitro assay using PBMCs from cynomologus monkeys. Specifically, cynomologus PBMCs were isolated and pretreated 12 hours with different concentrations (0.5, 5, 25 and 100 μg/ml) of hCD83ext wild type (formulated at pH 4.5 or 5.5), hCD83ext-m3 or hCD83ext-m5 (501-1). hCD83ext-m3 and hCD83ext-m5 were formulated at pH 5.5 or 7.6, respectively. The cells were then activated for 6 hours with LPS (1 μg/ml) plus IFN-γ (100 U/ml) in the presence of Brefeldin A (4 μg/ml) and then intracellularly stained for TNFα using a commercially available Fix/Perm kit. Flow cytometry acquisition and analysis of the amount of TNFα production was evaluated using either myeloid dendritic cells or monocytes. The results are expressed as % of mDC or monocytes producing TNFα and in Mean Fluorescence Units (MFU), which represents the levels of TNFα on a per cell basis.
hCD83ext wild type protein originally formulated at pH 7.6 (data shown FIGS. 26 and 27) was buffer exchanged into a buffer with a pH of 4.5 or 5.5 and re-tested as described above for the ability to inhibit TNFα production by LPS/IFN-γ stimulated cynomologus PBMCs in vitro.
A short description of data set [4]: Dimerization by size-exclusion chromatography and non-reduced SDS-PAGE with NEM pretreatment. The note with it: SEC and non-reduced SDS-PAGE with NEM; FIGS. 20, 21. It is filed as physicochemical. An excerpt:
Using exactly the same fermentation and downstream processing protocols as those for wild-type hCD83ext and CD83m-5, CD83m-3 was produced and purified. […] Purified CD83m-3 was subjected to structural characterization using SDS-PAGE (FIG. 15), CD (FIGS. 16 and 17), and spectrofluometry (FIG. 18) with results similar to wild-type hCD83ext and CD83m-5. Note that a clear and reproducible doublet was observed on non-reduced SDS-PAGE (FIG. 15). Also, note that none of these two bands corresponding to the CD83m-3 doublet appeared to have an identical mobility to the monomer species of CD83m-5, but the upper CD83m-3 band appeared to have an identical mobility to the monomer species of the wild-type hCD83ext (FIG. 19). To avoid potential disulfide bond scrambling during the sample preparation for non-reduced SDS-PAGE, the protocol was modified by pretreatment of the sample with N-Ethylmaleimide (NEM). NEM alkylates free thiol groups on cysteine residues that have not formed disulfide bonds, and thereby prevents subsequent disulfide bonding by that cysteine residue. It appears that the modified protocol using NEM provides a more reliable and consistent method for quantification of CD83 dimers by preventing any potential disulfide bond scrambling and the CD83 monomer is observed as a single band, rather than as a doublet (FIG. 20). […]
On the technique in general: In gel filtration, larger molecules generally elute earlier.

Data set [5] concerns kidney allografts from C57BL/6 mouse donors. Briefly: Mouse orthotopic kidney transplant model. It is filed as in vivo. As to conditions: monotherapy 100 μg/mouse/day i.v., day -1, day 0 and seven POD; untreated MST 31±4.9 days. Here is the method:
The mouse orthotopic kidney transplant model (see Zhang et al. (2005) Microsurgery 16(2):103-109) was used to assess the ability of hCD83ext-m3 to induce allograft tolerance. BALB/c mice received kidney allografts from C57BL/6 mouse donors. Recipient mice were either untreated (two mice) or received hCD83ext-m3 (3 mice; 100 μg/mouse/day, i.v.) one day prior to transplantation (day −1), the day of transplantation (day 0) and for seven days post operative days (POD). The two untreated mice survived for 28 and 35 days, giving a mean survival time (MST) of 31±4.9 days. The three mice treated with hCD83ext-m3 each survived for more than 100 POD. Accordingly, monotherapy with hCD83ext-m3 leads to long-term allograft acceptance in the mouse orthotopic kidney transplant model.

Data set [6] concerns TNFα production by LPS/IFN-γ stimulated human PBMCs. Briefly: Inhibition of TNFα production by LPS/IFN-γ stimulated human PBMCs. It is filed as cell-based. As to conditions: FIG. 30; four m3 preparations (pH 4.5, 5.5, 7.6) vs wild type ARG-021 in PBS pH 7.6. An excerpt: The improved stability/activity of hCD83ext-m3 as compared to hCD83ext wild type was confirmed in a similar assay using human PBMCs.

Data set [7] relates to rat renal allografts. Briefly: Rat renal transplant model of chronic rejection (F344 to Lewis). It is filed as in vivo. The note with it: POD 140; with CsA, compared to CsA alone; FIG. 37. The method, then: F344 rats served as renal donors to Lewis rats. […] Transplant recipients were sacrificed on POD 140 and transplanted kidneys were assessed for indications of chronic rejection by histology and immunohistochemistry. Renal histology was scored by an independent pathologist assessing tubular atrophy, glomerular atrophy, interstitial fibrosis, intimal thickness, cell infiltrates and cortical scarring on a scale of 0-4, wherein 0=normal, 1=minimal change, 2=mild change, 3=moderate change and 4=marked change.

Data set [8] concerns the molecule itself. The data set is described as follows: non-reducing SDS-PAGE; self-association through disulfide bonds.
Data set [9] concerns the molecule itself. The data set is described as follows: size-exclusion chromatography and non-reduced SDS-PAGE with NEM; self-association.
[10] abbreviates: FIG. 26, 0.5, 5, 25 and 100 μg/ml, wild type at pH 4.5 or 5.5, m3 at pH 5.5, m5 at pH 7.6.

Read-outs that look alike come from different tables or passages of the source. Some results are limits rather than exact numbers.

Experimental findings from patent US20110182903A1, “NOVEL SOLUBLE CD83 POLYPEPTIDES, FORMULATIONS AND METHODS OF USE” (priority 2008, published 2011) are described below.

B1: hCD83ext-wt: recombinant human sCD83 (CD83 extracellular domain) purified from E. coli, wild type form, SEQ ID NO:5 (protein)
chain: GSPGTPEVKVACSEDVDLPCTAPWDPQVPYTVSWVKLLEGGEERMETPQEDHLRGQHYHQKGQNGSFDAPNERPYSLKIRNTTSCNSGTYRCTLQDPDGQRNLSGKVILRVTGCPAQRKEETFKKYRAEI
modifications: Synthetic extracellular domain of human CD83 with the addition of Gly-Ser-Pro-Gly at the N-terminus and Ile at the C-terminus
Take B1: the “MST ± SD” value in data set [1] (Table 8, hCD83ext-wt 100 μg/mouse/day i.v., CsA 15 mg/kg/day s.c.) was 15.8 ± 1.0 days. The mean survival entry in data set [1] (in combination with cyclosporine, glycerol omitted) is recorded as “approximately 14 days”. In addition, the long-term graft survival in [1] (in combination with cyclosporine, stored in 50% glycerol, final glycerol concentration 8%) is on record as over 100 days. Also, in data set [1], the “extension of allograft survival compared to untreated controls” value was “approximately 2 fold” and the “mean survival time of graft” value is reported as “approximately 14 days”. Also, the degradation on storage result in data set [2] (stored at 4° C., with or without 50% glycerol) is given as “degraded”. Besides, the degradation on storage entry in data set [2] (stored at -20° C.) is on record as “completely prevented degradation”. The “dimerization on long-term storage” value in data set [2] (stored at -20° C., frozen) is “dimerization could still occur”.

B2: hCD83ext-m5: soluble CD83 mutant, fifth cysteine of SEQ ID NO:5 mutated to serine, SEQ ID NO:6 (WO2004/046182) (protein)
chain: GSPGTPEVKVACSEDVDLPCTAPWDPQVPYTVSWVKLLEGGEERMETPQEDHLRGQHYHQKGQNGSFDAPNERPYSLKIRNTTSCNSGTYRCTLQDPDGQRNLSGKVILRVTGSPAQRKEETFKKYRAEI
modifications: Synthetic extracellular domain of human CD83 with the addition of Gly-Ser-Pro-Gly and the N-terminus and Ile at the C-terminus, with Cys to Ser (C2S) mutation at position 114
With B2, in data set [1], the “mean survival time of graft” value is given as “approximately 14 days”. Besides, the “ability to inhibit TNFα production (relative activity)” value in [3] (setting [10]) is listed as “more active than the wild type hCD93ext”; in [3] (FIG. 27, proteins formulated at pH 7.6) it was “outperformed two preparations of hCD83ext wild type”. Besides, in data set [4], the dimerization entry is reported as “significant”.

B3: hCD83ext-m3: m3 mutant form of human sCD83; SEQ ID NO:7 with Cys at 12, 20, 92, 114 and Ser at 85 (protein)
chain: GSPGTPEVKVAXSEDVDLPXTAPWDPQVPYTVSWVKLLEGGEERMETPQEDHLRGQHYHQKGQNGSFDAPNERPYSLKIRNTTSXNSGTYRXTLQDPDGQRNLSGKVILRVTGXPAQRKEETFKKYRAEI
modifications: Synthetic extracellular domain of human CD83 with the addition of Gly-Ser-Pro-Gly and the N-terminus and Ile at the C-terminus
As for B3, the “synergy with CsA and operational tolerance” value in data set [1] (3 doses on days -1 to +1 plus CsA, CsA withdrawn at day 50, data not shown) is recorded as “full synergy with CsA, but incomplete operational tolerance”. Further, in [1] (Table 7, hCD83ext-m3 100 μg/mouse/day i.v. -1 to +7 POD, CsA 15 mg/kg/day s.c. daily), the “MST ± SD” value is 13.7 ± 0.6 days. Moreover, the “allograft tolerance after CsA withdrawal” value in data set [1] (combination therapy with CsA, CsA withdrawn at day 28, data not shown) is listed as “does not lead to permanent allograft tolerance”. Besides, in data set [1], the “extension of allograft survival compared to untreated controls” value was “approximately 2 fold” and the “mean survival time of graft” value is listed as “approximately 14 days”. In addition, the “allograft tolerance after cessation of daily CsA therapy” value in data set [1] (plus CsA until POD 50, hCD83ext-m3 100 μg i.v. days -1 to +7, data not shown) is “complete allograft tolerance”. Moreover, the “ability to inhibit TNFα production (relative activity)” value in [3] (setting [10]) is recorded as “more active than the m5 mutant”. Besides, the “survival of kidney allograft recipients” value in [5] is given as “more than 100 POD”. The “ability to inhibit TNFα production (relative activity)” value in [6] is listed as “outperformed hCD83ext wild type”. Moreover, the dimerization result in data set [4] is given as “absent or minimal”. Also, the “immunohistochemistry grading in renal allografts (IgG, IgM deposits; CD2, CD4, ED-1 infiltration)” value in data set [7] was “significantly (p<0.05) improves immunohistochemistry grading”.

B4: wild type hCD83ext (human CD83 extracellular domain with N-terminal Gly-Ser-Pro-Gly and C-terminal Ile, purified from E. coli) (receptor)
chain: GSPGTPEVKVACSEDVDLPCTAPWDPQVPYTVSWVKLLEGGEERMETPQEDHLRGQHYHQKGQNGSFDAPNERPYSLKIRNTTSCNSGTYRCTLQDPDGQRNLSGKVILRVTGCPAQRKEETFKKYRAE
notes: It carries four extra N-terminal residues and the first transmembrane residue (Ile); Not glycosylated (made in E. coli); Preparations hold monomer and disulfide-linked dimers and multimers; also called hCD83ext-wt; hCD83ext wild type
B4: in data set [8], the binding result is on record as “binds”.

B5: hCD83ext-m5 (hCD83ext with the fifth cysteine, position 114 of SEQ ID NO:5, mutated to serine) (receptor)
chain: GSPGTPEVKVACSEDVDLPCTAPWDPQVPYTVSWVKLLEGGEERMETPQEDHLRGQHYHQKGQNGSFDAPNERPYSLKIRNTTSCNSGTYRCTLQDPDGQRNLSGKVILRVTGSPAQRKEETFKKYRAE
notes: also called CD83m-5; hCD83m-5
Regarding B5, the binding result in data set [9] is on record as “binds”.
